Reference: the supplement of paper PMC10567573

B1: TMEM175 (parent)
chain: SCTIIFLASIFQLAMWTTALLHQA

Variants of: B1
Assay: protein stability index of a GFP-peptide fusion (GPS, HEK-293T) (PSI 1-6); higher = more stable
Conditions: c terminus: a fixed tail appended
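Further: lentivirally expressed fusions sorted by FACS into six bins by GFP to DsRed ratio, PSI derived from sequencing read proportions per bin multiplied by bin number.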

For L21T, which protein stability index is on record?
Its protein stability index is 3.02.

Which protein stability index does the source give for L21I here?
Its protein stability index is 2.71.

For L21Y, which protein stability index is on record?
The protein stability index was 3.71.

With L21K as the variant, how does the protein stability index read?
The protein stability index was 3.7.

With L21Q as the variant, how does the protein stability index read?
Its protein stability index is 2.64.

With L20I as the variant, how does the protein stability index read?
Its protein stability index is 3.51.

Which protein stability index does the source give for L20M here?
The protein stability index was 3.22.

With L20A as the variant, how does the protein stability index read?
Its protein stability index is 3.09.

Which protein stability index does the source give for L20P here?
Its protein stability index is 1.81.

Which protein stability index does the source give for L20G here?
The protein stability index was 1.94.

Which protein stability index does the source give for L20R here?
Its protein stability index is 3.39.

With L20D as the variant, how does the protein stability index read?
Its protein stability index is 3.05.

With A24C as the variant, how does the protein stability index read?
The protein stability index was 3.39.

For A24N, which protein stability index is on record?
The protein stability index was 2.45.

For A24K, which protein stability index is on record?
The protein stability index was 2.88.

With A24Y as the variant, how does the protein stability index read?
Its protein stability index is 2.61.

Which protein stability index does the source give for A24H here?
The protein stability index was 2.67.

Which protein stability index does the source give for A24E here?
The protein stability index was 3.22.

With A24S as the variant, how does the protein stability index read?
The protein stability index was 1.55.

Which protein stability index does the source give for A24D here?
The protein stability index was 4.05.

For A24V, which protein stability index is on record?
Its protein stability index is 1.5.

Which protein stability index does the source give for A24I here?
Its protein stability index is 3.19.

With M15L as the variant, how does the protein stability index read?
The protein stability index was 2.53.

Which protein stability index does the source give for M15K here?
Its protein stability index is 2.96.

For M15N, which protein stability index is on record?
The protein stability index was 2.51.

Which protein stability index does the source give for M15Q here?
Its protein stability index is 2.52.

For M15E, which protein stability index is on record?
Its protein stability index is 3.53.

With M15R as the variant, how does the protein stability index read?
The protein stability index was 1.69.

For I4W, which protein stability index is on record?
Its protein stability index is 2.14.

For I4H, which protein stability index is on record?
The protein stability index was 3.04.

Which protein stability index does the source give for I4P here?
The protein stability index was 4.19.

With I4G as the variant, how does the protein stability index read?
Its protein stability index is 2.7.

With I4A as the variant, how does the protein stability index read?
Its protein stability index is 3.22.

For I4V, which protein stability index is on record?
The protein stability index was 2.35.

Which protein stability index does the source give for I4F here?
The protein stability index was 2.9.

Which protein stability index does the source give for A19K here?
The protein stability index was 2.76.

For A19E, which protein stability index is on record?
The protein stability index was 2.73.

With A19Y as the variant, how does the protein stability index read?
The protein stability index was 2.1.

Which protein stability index does the source give for A19V here?
The protein stability index was 2.43.

Which protein stability index does the source give for A19H here?
Its protein stability index is 1.58.

For L7I, which protein stability index is on record?
Its protein stability index is 3.83.

For L7H, which protein stability index is on record?
The protein stability index was 3.64.

Which protein stability index does the source give for L7D here?
Its protein stability index is 4.13.

With L7A as the variant, how does the protein stability index read?
The protein stability index was 4.52.

For L7W, which protein stability index is on record?
The protein stability index was 3.1.

With L7M as the variant, how does the protein stability index read?
Its protein stability index is 2.79.

Which protein stability index does the source give for L7P here?
Its protein stability index is 2.79.

Which protein stability index does the source give for L7C here?
Its protein stability index is 3.2.

With L7N as the variant, how does the protein stability index read?
Its protein stability index is 3.78.

Which protein stability index does the source give for A14D here?
Its protein stability index is 4.

With A14F as the variant, how does the protein stability index read?
The protein stability index was 2.76.

Which protein stability index does the source give for A14I here?
Its protein stability index is 3.4.

For A14C, which protein stability index is on record?
The protein stability index was 3.07.

With A14L as the variant, how does the protein stability index read?
Its protein stability index is 4.29.

Which protein stability index does the source give for A14W here?
Its protein stability index is 2.09.

With A14Y as the variant, how does the protein stability index read?
Its protein stability index is 4.

With A14N as the variant, how does the protein stability index read?
Its protein stability index is 2.62.

For A14G, which protein stability index is on record?
The protein stability index was 3.94.

Which protein stability index does the source give for A14Q here?
Its protein stability index is 4.22.

For A14M, which protein stability index is on record?
The protein stability index was 3.19.

With A14E as the variant, how does the protein stability index read?
Its protein stability index is 1.9.

With A14R as the variant, how does the protein stability index read?
Its protein stability index is 3.53.

With S1R as the variant, how does the protein stability index read?
The protein stability index was 4.91.

Which protein stability index does the source give for S1C here?
Its protein stability index is 3.31.

With S1T as the variant, how does the protein stability index read?
Its protein stability index is 2.86.

For S1E, which protein stability index is on record?
The protein stability index was 1.31.

Which protein stability index does the source give for S1W here?
The protein stability index was 2.14.

For S1N, which protein stability index is on record?
The protein stability index was 2.02.

For F11E, which protein stability index is on record?
Its protein stability index is 3.04.

For F11D, which protein stability index is on record?
Its protein stability index is 2.62.

For F11M, which protein stability index is on record?
Its protein stability index is 1.87.

With F11L as the variant, how does the protein stability index read?
The protein stability index was 2.74.

Which protein stability index does the source give for F11K here?
Its protein stability index is 3.11.

For F11C, which protein stability index is on record?
Its protein stability index is 2.29.

Which protein stability index does the source give for F11T here?
The protein stability index was 3.38.

With F11W as the variant, how does the protein stability index read?
The protein stability index was 2.6.

For F11P, which protein stability index is on record?
The protein stability index was 2.96.

With T3M as the variant, how does the protein stability index read?
Its protein stability index is 2.56.

With T3Y as the variant, how does the protein stability index read?
Its protein stability index is 4.1.

With T17I as the variant, how does the protein stability index read?
The protein stability index was 3.54.

For T17A, which protein stability index is on record?
The protein stability index was 1.59.

With T17Y as the variant, how does the protein stability index read?
Its protein stability index is 2.83.

With T17S as the variant, how does the protein stability index read?
The protein stability index was 2.31.

Which protein stability index does the source give for T17L here?
Its protein stability index is 3.31.

Which protein stability index does the source give for T17H here?
Its protein stability index is 4.62.

For T17W, which protein stability index is on record?
The protein stability index was 4.

For T17P, which protein stability index is on record?
Its protein stability index is 2.64.

With T17V as the variant, how does the protein stability index read?
The protein stability index was 2.22.

For T17Q, which protein stability index is on record?
Its protein stability index is 2.52.

Which protein stability index does the source give for T17N here?
Its protein stability index is 3.8.

Which protein stability index does the source give for Q12I here?
The protein stability index was 3.51.

For Q12E, which protein stability index is on record?
Its protein stability index is 3.39.

Which protein stability index does the source give for Q12D here?
Its protein stability index is 3.29.

For Q12M, which protein stability index is on record?
Its protein stability index is 2.6.

Which protein stability index does the source give for Q12Y here?
Its protein stability index is 1.89.

For Q12N, which protein stability index is on record?
The protein stability index was 3.72.

Which protein stability index does the source give for Q12G here?
The protein stability index was 2.9.

With Q12F as the variant, how does the protein stability index read?
Its protein stability index is 2.61.

Which protein stability index does the source give for A8G here?
The protein stability index was 3.09.

For A8V, which protein stability index is on record?
Its protein stability index is 2.62.

For A8S, which protein stability index is on record?
Its protein stability index is 3.

With A8F as the variant, how does the protein stability index read?
Its protein stability index is 3.99.

With A8P as the variant, how does the protein stability index read?
The protein stability index was 2.84.

Which protein stability index does the source give for A8E here?
Its protein stability index is 2.8.

Which protein stability index does the source give for A8Q here?
The protein stability index was 3.65.

Which protein stability index does the source give for A8K here?
The protein stability index was 3.08.

Which protein stability index does the source give for I5K here?
Its protein stability index is 2.92.

With I5F as the variant, how does the protein stability index read?
Its protein stability index is 2.81.

For I5V, which protein stability index is on record?
Its protein stability index is 1.82.

With I5H as the variant, how does the protein stability index read?
Its protein stability index is 3.05.

For I5P, which protein stability index is on record?
Its protein stability index is 2.58.

With I5R as the variant, how does the protein stability index read?
The protein stability index was 1.6.

Which protein stability index does the source give for I5L here?
The protein stability index was 1.46.

For I5A, which protein stability index is on record?
The protein stability index was 2.65.

For W16G, which protein stability index is on record?
Its protein stability index is 2.72.

Which protein stability index does the source give for W16C here?
Its protein stability index is 3.44.

Which protein stability index does the source give for W16S here?
The protein stability index was 2.58.

Which protein stability index does the source give for W16V here?
The protein stability index was 3.96.

Which protein stability index does the source give for W16N here?
The protein stability index was 3.23.

Which protein stability index does the source give for W16H here?
Its protein stability index is 1.8.

For W16A, which protein stability index is on record?
Its protein stability index is 3.29.

Which protein stability index does the source give for W16F here?
Its protein stability index is 1.76.

Which protein stability index does the source give for L13Q here?
Its protein stability index is 3.08.

For L13C, which protein stability index is on record?
Its protein stability index is 2.76.

For L13D, which protein stability index is on record?
Its protein stability index is 2.59.

For L13F, which protein stability index is on record?
The protein stability index was 3.07.

For L13Y, which protein stability index is on record?
Its protein stability index is 2.81.

Which protein stability index does the source give for L13T here?
The protein stability index was 2.49.

Which protein stability index does the source give for L13V here?
Its protein stability index is 3.31.

With S9E as the variant, how does the protein stability index read?
Its protein stability index is 4.07.

For S9Q, which protein stability index is on record?
The protein stability index was 4.14.

For S9G, which protein stability index is on record?
Its protein stability index is 2.5.

For S9N, which protein stability index is on record?
The protein stability index was 3.06.

Which protein stability index does the source give for S9A here?
Its protein stability index is 3.6.

For S9W, which protein stability index is on record?
Its protein stability index is 4.47.

Which protein stability index does the source give for I10H here?
The protein stability index was 3.64.

Which protein stability index does the source give for I10G here?
Its protein stability index is 2.65.

Which protein stability index does the source give for I10T here?
Its protein stability index is 3.72.

For I10V, which protein stability index is on record?
The protein stability index was 3.47.

Which protein stability index does the source give for I10N here?
The protein stability index was 2.59.

For I10K, which protein stability index is on record?
Its protein stability index is 3.74.

With I10W as the variant, how does the protein stability index read?
The protein stability index was 2.29.

With I10Q as the variant, how does the protein stability index read?
Its protein stability index is 2.91.

Which protein stability index does the source give for I10P here?
The protein stability index was 2.65.

For I10S, which protein stability index is on record?
Its protein stability index is 2.97.

With T18A as the variant, how does the protein stability index read?
Its protein stability index is 2.23.

With T18L as the variant, how does the protein stability index read?
The protein stability index was 2.73.

For T18K, which protein stability index is on record?
The protein stability index was 2.31.

For T18Y, which protein stability index is on record?
The protein stability index was 2.68.

Which protein stability index does the source give for T18I here?
Its protein stability index is 2.16.

With T18R as the variant, how does the protein stability index read?
The protein stability index was 2.09.

For T18H, which protein stability index is on record?
Its protein stability index is 2.85.

Which protein stability index does the source give for H22G here?
The protein stability index was 3.04.

For H22L, which protein stability index is on record?
Its protein stability index is 1.86.

With H22Y as the variant, how does the protein stability index read?
Its protein stability index is 2.5.

For H22W, which protein stability index is on record?
The protein stability index was 3.14.

For H22P, which protein stability index is on record?
The protein stability index was 3.

For H22N, which protein stability index is on record?
Its protein stability index is 2.87.

With H22V as the variant, how does the protein stability index read?
The protein stability index was 3.39.

With H22Q as the variant, how does the protein stability index read?
The protein stability index was 2.97.

For H22F, which protein stability index is on record?
Its protein stability index is 2.6.

Which protein stability index does the source give for H22R here?
The protein stability index was 2.5.

For Q23G, which protein stability index is on record?
The protein stability index was 4.5.

For Q23P, which protein stability index is on record?
Its protein stability index is 3.

Which protein stability index does the source give for Q23E here?
Its protein stability index is 2.09.

With Q23S as the variant, how does the protein stability index read?
The protein stability index was 3.77.

For Q23W, which protein stability index is on record?
The protein stability index was 3.32.
